Blank lines part the entries; values can stand above or below the substance they belong to.
Legend:
[1] = target: 14-3-3η (purified, recombinant) (UniProt Q04917); assay: cross-linking + other: mass photometry; complex stabilised by glutaraldehyde cross-linking, then mass photometry (25 to 50 nM, 50 mM HEPES pH 7.4, 150 mM NaCl, 1 mM TCEP)
[2] = target: 14-3-3η (purified, recombinant) (UniProt Q04917); assay: SEC; complex formed in vitro: equimolar MAST1^D p-S90 and 14-3-3η, 30 min at room temperature, then analytical SEC (Superdex 200 Increase 3.2/300, 50 mM HEPES pH 7.4, 150 mM NaCl, 1 mM TCEP, 4 °C; 50 μL of 30 μM); Coomassie SDS-PAGE of fractions with gel densitometry
[3] = target: 14-3-3η (purified recombinant) (UniProt P68510); assay: fluorescence anisotropy, FITC peptide; settings: reference: unphosphorylated peptide …
[4] = target: MAST1^DK ΔS90 ΔS161 (Mus musculus); assay: FP
[5] = target: GST-tagged 14-3-3η (coexpressed with MAST1^DK) (UniProt Q04917); assay: cross-linking + other: mass photometry; complex stabilised by glutaraldehyde cross-linking, then mass photometry (25 to 50 nM, 50 mM HEPES pH 7.4, 150 mM NaCl, 1 mM TCEP)
[6] = target: GST-tagged 14-3-3η (coexpressed with MAST1^DK) (UniProt Q04917); assay: SEC; complex coexpressed in Sf9, affinity-purified by the GST tag of 14-3-3η, then analytical SEC (Superdex 200 Increase 3.2/300, 50 mM HEPES pH 7.4, 150 mM NaCl, 1 mM TCEP, 4 °C); Coomassie SDS-PAGE of fractions with gel densitometry
[7] = target: 14-3-3η (endogenous) (UniProt Q04917); assay: GFP-Trap affinity purification, mass spectrometry; settings: sites S90

Sequence of GST-tagged 14-3-3η (coexpressed with MAST1^DK) (Q04917 whole entry): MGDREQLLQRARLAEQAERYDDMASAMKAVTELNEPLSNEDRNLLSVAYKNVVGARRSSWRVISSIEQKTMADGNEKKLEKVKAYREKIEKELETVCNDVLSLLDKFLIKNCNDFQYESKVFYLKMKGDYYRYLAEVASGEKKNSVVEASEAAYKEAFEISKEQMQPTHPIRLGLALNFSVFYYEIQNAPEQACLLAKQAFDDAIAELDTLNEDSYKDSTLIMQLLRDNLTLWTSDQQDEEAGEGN
Sequence of 14-3-3η (purified, recombinant) (Q04917 whole entry): as above
Sequence of MAST1^DK ΔS90 ΔS161 (Mus musculus) (Q9R1L5 whole entry S90del/S161del): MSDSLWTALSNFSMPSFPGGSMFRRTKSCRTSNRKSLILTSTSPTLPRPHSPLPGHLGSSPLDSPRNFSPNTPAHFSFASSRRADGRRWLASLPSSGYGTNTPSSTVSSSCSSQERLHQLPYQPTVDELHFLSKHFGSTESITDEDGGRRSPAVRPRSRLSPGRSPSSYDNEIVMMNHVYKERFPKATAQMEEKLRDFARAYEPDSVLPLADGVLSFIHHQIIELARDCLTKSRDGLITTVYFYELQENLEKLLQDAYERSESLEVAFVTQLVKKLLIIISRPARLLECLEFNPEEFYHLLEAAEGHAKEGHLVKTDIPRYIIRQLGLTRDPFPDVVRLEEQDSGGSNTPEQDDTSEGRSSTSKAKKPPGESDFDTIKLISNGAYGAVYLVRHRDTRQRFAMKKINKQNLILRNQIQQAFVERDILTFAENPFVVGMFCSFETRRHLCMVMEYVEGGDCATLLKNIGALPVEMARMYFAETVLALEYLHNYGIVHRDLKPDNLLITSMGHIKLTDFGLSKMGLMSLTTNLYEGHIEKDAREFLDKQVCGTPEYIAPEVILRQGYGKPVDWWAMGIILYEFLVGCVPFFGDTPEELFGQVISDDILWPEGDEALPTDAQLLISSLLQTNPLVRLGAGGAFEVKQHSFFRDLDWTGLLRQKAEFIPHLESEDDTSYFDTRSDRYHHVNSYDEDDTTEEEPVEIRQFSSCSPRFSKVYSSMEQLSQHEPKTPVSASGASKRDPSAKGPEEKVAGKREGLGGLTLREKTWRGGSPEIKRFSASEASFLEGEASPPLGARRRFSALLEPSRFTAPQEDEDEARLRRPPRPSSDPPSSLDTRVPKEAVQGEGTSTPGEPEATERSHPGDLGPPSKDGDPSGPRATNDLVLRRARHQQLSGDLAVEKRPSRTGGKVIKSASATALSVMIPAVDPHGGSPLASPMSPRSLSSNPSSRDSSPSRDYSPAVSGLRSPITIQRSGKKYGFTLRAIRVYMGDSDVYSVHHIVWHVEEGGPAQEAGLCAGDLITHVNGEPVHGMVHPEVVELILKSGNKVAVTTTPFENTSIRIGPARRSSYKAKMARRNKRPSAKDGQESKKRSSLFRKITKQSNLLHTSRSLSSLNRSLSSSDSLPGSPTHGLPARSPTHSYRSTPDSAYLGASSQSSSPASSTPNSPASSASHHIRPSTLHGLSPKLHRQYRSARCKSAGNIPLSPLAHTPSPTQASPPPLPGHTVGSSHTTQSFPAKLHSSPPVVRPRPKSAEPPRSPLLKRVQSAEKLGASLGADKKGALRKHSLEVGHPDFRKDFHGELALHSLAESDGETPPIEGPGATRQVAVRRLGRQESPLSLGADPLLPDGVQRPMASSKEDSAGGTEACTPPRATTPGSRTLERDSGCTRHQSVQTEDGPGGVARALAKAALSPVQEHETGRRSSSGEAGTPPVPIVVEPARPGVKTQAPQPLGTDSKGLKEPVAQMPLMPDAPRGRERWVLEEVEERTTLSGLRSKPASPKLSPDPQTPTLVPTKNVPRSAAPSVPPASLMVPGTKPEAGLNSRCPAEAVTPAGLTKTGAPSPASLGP

Substance: MAST1 85-97 (from UniProt Q9R1L5) p-S90 peptide
- binding against the reference ([3]; sites S90): gained

Substance: MAST1 MAST1DKP (from UniProt Q9R1L5) S90A
- binding against the reference ([7]; reference: wild type): weaker

Substance: MAST1 MAST1DKP (from UniProt Q9R1L5) S90A S161A
- binding against the reference ([7]; reference: S161A single mutant (S90 intact)): weaker

Now from value to substance:

- stoichiometry N (MAST1:14-3-3η) [1]: 0.5
- stoichiometry N (MAST1:14-3-3η) [2]: 0.5
Substance: MAST1^D p-S90 (from UniProt Q9R1L5 1-1570) (domain or fragment)

- Kd [4]: 1170 µM
Substance: MAST1^153-166 WT

- stoichiometry N (MAST1:14-3-3η) [5]: 0.5
- stoichiometry N (MAST1:14-3-3η) [6]: 0.5
Substance: MAST1^DK (copurified with 14-3-3η) (from UniProt Q9R1L5 1-1570) (domain or fragment)

- binding against the reference ([3]; sites S161): gained
Substance: MAST1 156-168 (from UniProt Q9R1L5) p-S161 peptide

Reference: PMC13598245
